± gives the uncertainty stated by the source.
Assay: self-splicing fitness, log relative to wild type (ln ratio); higher = more splicing; Tetrahymena group I intron in knt gene, E. coli kanamycin selection, DiMSum; sequences stand for … in CUCUCU…GGAGGGAAAAGUUAUCAGGCAUGCACCUGGUAGCUAGUCUUUAAACCAAUAGAUUGCAUCGGUUUAAAAGGCAAGACCGUCAAAUUGCGGGAAAGGGGUCAACAGCCGUUCAGUACCAAGUCUCAGGGGAAACUUUGAGAUGGCCUUGCAAAGGGUAUGGUAAUAAGCUGACGGACAUGGUCCUAACCACGCAGCCAAGUCCUAAGUCAACAGAUCUUCUGUUGAUAUGGAUGCAGUUCACAGACUAAAUGUCGGUCGGGGAAGAUGUAUUCUUCUCAUAAGAUAUAGUCGGACCUCUCCUUAAUGGGAGCUAGCGGAUGAAGUGAUGCAACACUGGAGCCGCUGGGAACUAAUUUGUAUGCGAAAGUAUAUUGAUUAGUUUUGGAGUACUCGUGGUCG
Summary of the method: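 Library with all eight P1ex-region intron nucleotides randomised, intron inside the knt kanamycin-resistance gene on pET-22b(+), in E. coli BL21(DE3). Cells grew overnight at 37°C or 30°C on LB agar with or without 25 μg/mL kanamycin (plus 100 μg/mL carbenicillin, 50 μM IPTG, 0.2% rhamnose), in six replicate transformations. Pooled colonies were amplicon-sequenced on Illumina HiSeq 2500. DiMSum fitness is the error-weighted combination of wild-type-normalised replicate fold changes, kanamycin versus none.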

Row | Sequence | self-splicing fitness (ln) (30 °C) | self-splicing fitness (ln) (37 °C)
1 | GCUCAGCAAUAUUACGGGUG | -0.435 ± 0.055 | -0.211 ± 0.074
2 | GCUCAGCAAUAUUACGGUAU | -1.14 ± 0.061 | 0.0133 ± 0.075
3 | GCUCAGCAAUAUUACGUAGA | -0.134 ± 0.073 | -0.191 ± 0.084
4 | GCUCAGCAAUAUUACGUCGU | -0.158 ± 0.057 | 0.486 ± 0.082
5 | GCUCAGCAAUAUUACGUCUC | -0.67 ± 0.12 | -0.754 ± 0.1
6 | GCUCAGCAAUAUUACGUUGC | -1.99 ± 0.17 | -1.27 ± 0.16
7 | GCUCAGCAAUAUUACGUUGG | -1.96 ± 0.17 | -2.46 ± 0.19
8 | GCUCAGCAAUAUUACGUUGU | -0.847 ± 0.042 | -0.0979 ± 0.057
9 | GCUCAGCAAUAUUACGUUUA | -1.44 ± 0.09 | -0.861 ± 0.083
10 | GCUGAGCAAUAUUACGAAAC | -2.42 ± 0.17 | 0.274 ± 0.14
11 | GCUGAGCAAUAUUACGACCA | -3.18 ± 0.41 | -1.57 ± 0.39
12 | GCUGAGCAAUAUUACGACGG | -1.27 ± 0.17 | -0.245 ± 0.27
13 | GCUGAGCAAUAUUACGACUG | -2.16 ± 0.35 | -0.83 ± 0.38
14 | GCUGAGCAAUAUUACGAGAG | -2.49 ± 0.23 | -2.41 ± 0.22
15 | GCUGAGCAAUAUUACGAGGG | -2.71 ± 0.16 | -2.45 ± 0.31
16 | GCUGAGCAAUAUUACGAGUG | -0.948 ± 0.14 | -1.2 ± 0.17
17 | GCUGAGCAAUAUUACGCAGA | -2.47 ± 0.29 | -1.6 ± 0.32
18 | GCUGAGCAAUAUUACGCGGA | -4.07 ± 0.35 | -2.82 ± 0.23
19 | GCUGAGCAAUAUUACGCGUC | -1.94 ± 0.17 | -0.941 ± 0.21
20 | GCUGAGCAAUAUUACGGCAA | -1.52 ± 0.21 | -2.9 ± 0.31
21 | GCUGAGCAAUAUUACGGGUA | -1.3 ± 0.091 | -1.15 ± 0.1

Row | Sequence | self-splicing fitness (ln) (30 °C) | self-splicing fitness (ln) (37 °C)
22 | GCUGAGCAAUAUUACGUACG | -2.59 ± 0.27 | -1.16 ± 0.29
23 | GCUGAGCAAUAUUACGUAGG | -1.82 ± 0.084 | -1.24 ± 0.12
24 | GCUGAGCAAUAUUACGUAUG | -3.21 ± 0.16 | -2.61 ± 0.33
25 | GCUGAGCAAUAUUACGUCUA | -2.85 ± 0.22 | -1.06 ± 0.14
26 | GCUGAGCAAUAUUACGUGAG | -1.73 ± 0.11 | -1.28 ± 0.095
27 | GCUGAGCAAUAUUACGUUAC |  | -2.37 ± 0.32
28 | GCUUAGCAAUAUUACGACAC | -0.819 ± 0.21 | -0.721 ± 0.16
29 | GCUUAGCAAUAUUACGACAG | -2.97 ± 0.3 | -1.93 ± 0.47
30 | GCUUAGCAAUAUUACGACAU | -1.26 ± 0.014 | -0.365 ± 0.033
31 | GCUUAGCAAUAUUACGAGUU | -1.62 ± 0.091 | -0.362 ± 0.11
32 | GCUUAGCAAUAUUACGAUCG | -1.19 ± 0.1 | -0.254 ± 0.12
33 | GCUUAGCAAUAUUACGAUGG | -1.54 ± 0.1 | -0.452 ± 0.097
34 | GCUUAGCAAUAUUACGCCAA | -4.1 ± 0.43 | 
35 | GCUUAGCAAUAUUACGCCAU |  | -2.2 ± 0.39
36 | GCUUAGCAAUAUUACGCCGC | -3.07 ± 0.5 | 
37 | GCUUAGCAAUAUUACGCGAC | -3.07 ± 0.29 | -1.73 ± 0.2
38 | GCUUAGCAAUAUUACGCGAG | -2.04 ± 0.22 | -2.56 ± 0.33
39 | GCUUAGCAAUAUUACGCGGU | -3.52 ± 0.2 | -3.42 ± 0.28
40 | GCUUAGCAAUAUUACGGCCA |  | -0.846 ± 0.27
41 | GCUUAGCAAUAUUACGGCCC | 0.0255 ± 0.31 | 

Source: the supplement of paper PMC7877785
